Article PMC8303762

Molecular target: insulin-like growth factor-1 receptor (IGF-1R) on MCF-7 cells (human (endogenous in MCF-7)) (UniProt P08069)
UniProt P08069, sequence (P08069 31-1367): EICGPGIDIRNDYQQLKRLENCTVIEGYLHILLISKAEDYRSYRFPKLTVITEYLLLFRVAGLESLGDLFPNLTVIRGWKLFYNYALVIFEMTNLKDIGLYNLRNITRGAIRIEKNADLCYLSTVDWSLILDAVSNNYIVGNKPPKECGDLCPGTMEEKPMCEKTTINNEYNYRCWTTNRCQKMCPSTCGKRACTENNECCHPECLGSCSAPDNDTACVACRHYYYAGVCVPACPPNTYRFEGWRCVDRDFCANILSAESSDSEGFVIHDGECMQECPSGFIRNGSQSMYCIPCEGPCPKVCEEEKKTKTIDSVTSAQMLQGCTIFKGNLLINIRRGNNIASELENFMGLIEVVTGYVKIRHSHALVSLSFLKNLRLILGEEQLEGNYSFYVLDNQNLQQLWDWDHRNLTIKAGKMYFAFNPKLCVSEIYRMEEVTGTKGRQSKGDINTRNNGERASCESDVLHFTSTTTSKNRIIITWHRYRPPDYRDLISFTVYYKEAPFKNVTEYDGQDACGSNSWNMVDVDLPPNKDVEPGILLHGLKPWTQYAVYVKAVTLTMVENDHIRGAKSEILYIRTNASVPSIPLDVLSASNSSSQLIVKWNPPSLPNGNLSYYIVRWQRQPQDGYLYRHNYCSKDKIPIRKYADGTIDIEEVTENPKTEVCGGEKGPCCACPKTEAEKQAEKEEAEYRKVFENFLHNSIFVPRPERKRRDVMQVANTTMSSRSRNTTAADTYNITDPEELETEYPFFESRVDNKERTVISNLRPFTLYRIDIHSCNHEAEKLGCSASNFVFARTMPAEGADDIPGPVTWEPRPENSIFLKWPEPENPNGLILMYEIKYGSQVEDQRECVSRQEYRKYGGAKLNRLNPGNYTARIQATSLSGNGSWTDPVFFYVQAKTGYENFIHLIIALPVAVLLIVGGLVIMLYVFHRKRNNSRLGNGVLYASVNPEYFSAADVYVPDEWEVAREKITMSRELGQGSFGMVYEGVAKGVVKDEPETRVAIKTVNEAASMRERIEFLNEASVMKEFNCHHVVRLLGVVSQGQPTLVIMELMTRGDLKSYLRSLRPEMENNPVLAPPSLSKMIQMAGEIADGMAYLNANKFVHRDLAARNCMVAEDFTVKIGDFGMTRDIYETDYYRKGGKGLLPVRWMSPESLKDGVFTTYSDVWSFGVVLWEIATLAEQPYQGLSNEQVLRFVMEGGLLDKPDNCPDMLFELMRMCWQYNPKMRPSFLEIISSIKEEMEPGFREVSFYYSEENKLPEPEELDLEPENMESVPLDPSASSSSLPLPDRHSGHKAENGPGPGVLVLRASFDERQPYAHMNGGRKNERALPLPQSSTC

recombinant human vimentin, sequence (P08670 whole entry): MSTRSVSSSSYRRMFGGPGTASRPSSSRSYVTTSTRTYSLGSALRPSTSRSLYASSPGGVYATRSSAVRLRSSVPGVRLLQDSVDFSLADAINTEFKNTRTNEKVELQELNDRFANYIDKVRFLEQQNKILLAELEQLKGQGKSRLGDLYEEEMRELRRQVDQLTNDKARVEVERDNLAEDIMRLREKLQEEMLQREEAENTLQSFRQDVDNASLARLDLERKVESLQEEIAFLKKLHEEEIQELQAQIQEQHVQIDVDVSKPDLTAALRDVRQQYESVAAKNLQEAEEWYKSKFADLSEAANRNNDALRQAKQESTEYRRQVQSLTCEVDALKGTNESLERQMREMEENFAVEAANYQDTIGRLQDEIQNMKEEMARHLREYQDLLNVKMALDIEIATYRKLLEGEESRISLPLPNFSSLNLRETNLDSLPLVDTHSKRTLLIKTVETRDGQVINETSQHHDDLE

MTT proliferation of MCF-7 cells treated with recombinant human vimentin (0, 50, 100, 200 ng/mL), 72 h; value printed for 100 ng/mL: > 20%
Substance: recombinant human vimentin (from UniProt P08670 1-466) (natural protein)
